Molecular target: purified GST-RACK1 (human, UniProt P63244 1-317)
Assay: pull-down

B1: purified His-WRN protein (natural protein)
chain: not shown
B1: binds.

— publication PMC4586175 (Oncogene, 2009)
